B1: Polycomb protein Pcl (Drosophila melanogaster (Fruit fly)), Q24459 (parent)
chain: MMNNHFHLQHDHPPQNVAHPFMQQPSTAVPSAPPATYGYLAQPAGQQPQWMTTTYQILPPSVGPATVAKRYYATTGPQTTHPTHPSTIQITNSFAQQSTPPKQQAATSCSPFKANNIRIISTAPSVYSLNKPPQEAHSTYAPVQSYYLPSGGGQTAGQINLLAASGTGKQLQPPPLVPVTNSTSPPSTVVLDRINICINNHYTETPTSLSSSLTTAQQPSPIIPAIQHKAILPLIDSSTADSSSCSSSSVSSSSYSGTATTSAAVVIVDEPDSTTTTPQTPPTTPEAMSSPGKSSPSPPLLATQSLLKGVNSMKPSFKTVEAAPPTPPTPPSPPPPPPAPPVAAPSPAVTYALQEDVFIKCNDGRFYLGTIIDQTSDQYLIRFDDQSEQWCEPDKLRKLGGGSSITAGGGGASTTESTNTSPSGPMCVACKRSDIEDVVEICERCGRGYHRGCTVEIVTGSGIWSCKRCAKPMKMQQPVSHKITKPAGICRQLPYHADKLSWDEKHRVNEEQIYCYCGKPGKFDHNMLQCCKCRNWFHTQCMQNFKKKLLRGDMFFVFCCTVCNNGIEFVRRMQIEWVDVLHIALYNLRKHQHQKYHHLLNDIWPFILEQRHQLPICEKWRTLPETALMERLKQTLKDYSDRFVCGREFKRAPAFYALRHSGPPHIPKVFLEPHEELSDELLEKRFKLMLMPEEPDEGANELPKRVPKDVYEFNTDEDDPVETSEDEIPIKQIIEKAKKQAAQKADKHDELPLKPDLADDNANDGDPGKLPAPIPPLLDANSSRKRKAFRLSKRYDNSRNHCDLSSDENSSSSRGTSSLDLIIPPPVNFLGRNNPFLMATPKKASQGRSISVGTGVGVNGIINSIFKLKGTSKEQPRMVRTIKRRLSAKDITIGPNQEVRRRRTRRLTTAIEVISTTTINPIPSHYLPIYAKDLQPPAPPMGKPTHGRLLRQRPQKQSPSQSRRNSTSSTATSSSSNGIGAPGHSMLDLKQSVNKYFGGAMNRIDAGEPFAIRAKRRMGNGQVQYLVEWGGDTATTAIGLLGN

Variants of: B1
Settings: with ez_drome E(z)

Effect of a mutation on the interaction, decreasing interaction:
C430S
C517S
C517A
C430A
